Drawing on publication PMC5699509, this text covers Kd for 2 molecules.

Where two headings read alike, the source gives them in different places.

Common to all, as to assay: fluorescence quenching
Series [1] has as its target T1, RAD51 WT (Homo sapiens, UniProt Q06609 1-339).
Series [2] concerns the target T2, RAD51 F86L (Homo sapiens, UniProt Q06609 1-339, F86L).
Series [3] has as its target T3, RAD51 E258A (Homo sapiens, UniProt Q06609 1-339, E258A).
The target of series [4] is T1, RAD51 WT. This is another data set of the same source.
Series [5] concerns the target T2, RAD51 F86L. This is another data set of the same source.
Series [6] addresses T3, RAD51 E258A. The source holds these as a separate data set.

T2 sequence (Q06609 whole entry F86L): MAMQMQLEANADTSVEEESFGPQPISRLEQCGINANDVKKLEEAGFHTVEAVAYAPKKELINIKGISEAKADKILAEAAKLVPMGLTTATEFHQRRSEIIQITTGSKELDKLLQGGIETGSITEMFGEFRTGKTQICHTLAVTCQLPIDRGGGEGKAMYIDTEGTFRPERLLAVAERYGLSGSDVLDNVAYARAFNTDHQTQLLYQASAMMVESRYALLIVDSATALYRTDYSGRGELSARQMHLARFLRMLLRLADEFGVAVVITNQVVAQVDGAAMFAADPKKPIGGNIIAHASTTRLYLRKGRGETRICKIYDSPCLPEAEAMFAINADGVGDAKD
T3 sequence (Q06609 whole entry E258A): as the sequence (Q06609 whole entry F86L) above, with L86F, E258A counted along it
T1 sequence (Q06609 whole entry): as the sequence (Q06609 whole entry F86L) above, with L86F counted along it

B1: oligo 9/10 dsDNA (AF546) (dsDNA)
DNA 1: AAAAAAAAAAAAAAAAAAAAAAAAA
DNA 2: TTTTTTTTTTTTTTTTTTTTTTTTT
As to B1, the Kd (usually the free concentration of one partner at which half of the binding sites on the other are occupied at equilibrium, for simple one-to-one binding) came out at 0.8 ± 0.1 µM with RAD51 WT [1]; 1.7 ± 0.1 µM in the series with RAD51 F86L [2]; 2.1 ± 0.1 µM in the series with RAD51 E258A [3]; 0.7 ± 0.1 µM in the series with RAD51 WT [4]; 1.8 ± 0.2 µM in the series with RAD51 F86L [5]; 1.3 ± 0.1 µM in the series with RAD51 E258A [6].
AAAAAAAAAAAAAAAAAAAAAAAAA (ssDNA) [oligo 9 ssDNA (AF546 poly-dA)]: the Kd in the series with RAD51 WT [1] turned out to be 1.9 ± 0.2 µM; in the series with RAD51 WT [4], 0.6 ± 0.1 µM; with RAD51 F86L [5] it was 4.9 ± 0.4 µM; with RAD51 E258A [6], 3.1 ± 0.3 µM.
